Square brackets hold non-standard residues; d marks the D form. Ends that are not written are not given here. pS = N[C@@H](COP(=O)(O)O)C(=O)O
biological target: T1, HLA-A*02:01 (human); test: UV-ligand exchange ELISA (anti-β2m), peptide exchange yield grade
T1 construct: MHC class I monomer made peptide-receptive by UV cleavage of a UV-sensitive ligand; also called peptide-receptive MHC molecules
From the text: Candidate peptides for T cell based therapies according to the present invention were further tested for their MHC binding capacity (affinity). The individual peptide-MHC complexes were produced by UV-ligand exchange, where a UV-sensitive peptide is cleaved upon UV-irradiation, and exchanged with the peptide of interest as analyzed. Only peptide candidates that can effectively bind and stabilize the peptide-receptive MHC molecules prevent dissociation of the MHC complexes. To determine the yield of the exchange reaction, an ELISA was performed based on the detection of the light chain (β2m) of stabilized MHC complexes. The assay was performed as generally described in Rodenko et al. (Rodenko et al., 2006).
96 well MAXISorp plates (NUNC) were coated over night with 2ug/ml streptavidin in PBS at room temperature, washed 4× and blocked for1h at 37° C. in 2% BSA containing blocking buffer. Refolded HLA-A*02:01/MLA-001 monomers served as standards, covering the range of 15-500 ng/ml. Peptide-MHC monomers of the UV-exchange reaction were diluted 100 fold in blocking buffer. Samples were incubated for 1h at 37° C., washed four times, incubated with 2 ug/ml HRP conjugated anti-β2m for 1h at 37° C., washed again and detected with TMB solution that is stopped with […]. Absorption was measured at 450 nm. Candidate peptides that show a high exchange yield (preferably higher than 50%, most preferred higher than 75 %) are generally preferred for a generation and production of antibodies or fragments thereof, and/or T cell receptors or fragments thereof, as they show sufficient avidity to the MHC molecules and prevent dissociation of the MHC complexes.

Binder | peptide exchange yield
RLLHEVQEL [peptide RLLHEVQEL (SEQ ID NO: 163)] | 50 to 75%
YLFREPATI [peptide YLFREPATI (SEQ ID NO: 178)] | 20 to 50%
GLLEARGILGL [peptide GLLEARGILGL (SEQ ID NO: 166)] | 50 to 75%
QMLDVAIRV [peptide QMLDVAIRV (SEQ ID NO: 29)] | 50 to 75%
ALTEIQEFI [peptide ALTEIQEFI (SEQ ID NO: 28)] | ≥ 75%
VLDGVLMEL [peptide VLDGVLMEL (SEQ ID NO: 24)] | 50 to 75%
RLYTKLLNEA [peptide RLYTKLLNEA (SEQ ID NO: 19)] | 50 to 75%
RLL[pS]PLSSA (Phosphopeptide) [peptide RLLJPLSSA (SEQ ID NO: 179)] | 50 to 75%
KLNTETFGV [peptide KLNTETFGV (SEQ ID NO: 32)] | 20 to 50%
LLLDTVTMQV [peptide LLLDTVTMQV (SEQ ID NO: 172)] | 50 to 75%
SLNKWIFTV [peptide SLNKWIFTV (SEQ ID NO: 182)] | ≥ 75%
ALLQGAIESV [peptide ALLQGAIESV (SEQ ID NO: 177)] | 50 to 75%
KLLEFDQLQL [peptide KLLEFDQLQL (SEQ ID NO: 160)] | 50 to 75%
GLASKENFSNVSL [peptide GLASKENFSNVSL (SEQ ID NO: 26)] | 20 to 50%
KLMDYIDEL [peptide KLMDYIDEL (SEQ ID NO: 162)] | 50 to 75%
NLFDLGGQYLRV [peptide NLFDLGGQYLRV (SEQ ID NO: 181)] | 50 to 75%
YLKDGDVML [peptide YLKDGDVML (SEQ ID NO: 20)] | 50 to 75%
GLHNVVYGI (also called GLHNWYGI) [peptide GLHNVVYGI (SEQ ID NO: 187)] | 50 to 75%
VLYTGVVRV [peptide VLYTGWRV (SEQ ID NO: 185)] | 50 to 75%
FLDANGHFV [peptide FLDANGHFV (SEQ ID NO: 23)] | 50 to 75%
AMAEMVLQV [peptide AMAEMVLQV (SEQ ID NO: 190)] | 50 to 75%
TLLGGKEAQALGV [peptide TLLGGKEAQALGV (SEQ ID NO: 175)] | 50 to 75%
FLKNELDNV [peptide FLKNELDNV (SEQ ID NO: 161)] | 50 to 75%
SLADRLIGV [peptide SLADRLIGV (SEQ ID NO: 25)] | ≥ 75%
FLSSLKGGLL [peptide FLSSLKGGLL (SEQ ID NO: 18)] | 50 to 75%
ALLPRYFFL [peptide ALLPRYFFL (SEQ ID NO: 2)] | 20 to 50%
SVIDHIHLISV [peptide SVIDHIHLISV (SEQ ID NO: 167)] | 50 to 75%

Binder | peptide exchange yield
KMLDEILLQL [peptide KMLDEILLQL (SEQ ID NO: 164)] | ≥ 75%
LLADEDSSYL [peptide LLADEDSSYL (SEQ ID NO: 27)] | 20 to 50%
GLIRFPLMTI [peptide GLIRFPLMTI (SEQ ID NO: 168)] | 50 to 75%
TLQEVVTGV (also called TLQEWTGV) [peptide TLQEVVTGV (SEQ ID NO: 183)] | 50 to 75%
VLVDQSWVL [peptide VLVDQSWVL (SEQ ID NO: 16)] | 50 to 75%
QLFSEIHNL [peptide QLFSEIHNL (SEQ ID NO: 191)] | ≥ 75%
GLLDPSVFHV [peptide GLLDPSVFHV (SEQ ID NO: 158)] | 50 to 75%
LLYGKYVSV [peptide LLYGKYVSV (SEQ ID NO: 31)] | 50 to 75%
RLQETEGMVAV [peptide RLQETEGMVAV (SEQ ID NO: 171)] | 20 to 50%
ILLEKSVSV [peptide ILLEKSVSV (SEQ ID NO: 34)] | 50 to 75%
KMSEKILLL [peptide KMSEKILLL (SEQ ID NO: 186)] | 50 to 75%
VLIDHRWVL [peptide VLIDHRWVL (SEQ ID NO: 21)] | 50 to 75%
FLVDGPRVQL [peptide FLVDGPRVQL (SEQ ID NO: 188)] | 50 to 75%
AISEVIGKITA [peptide AISEVIGKITA (SEQ ID NO: 189)] | 50 to 75%
GLIDEVMVL (also called CYP2W1-001) [peptide GLIDEVMVL (SEQ ID NO: 22)] | 50 to 75%
ALAGGITMV [peptide ALAGGITMV (SEQ ID NO: 170)] | 50 to 75%
SLLDENNVSSYL [peptide SLLDENNVSSYL (SEQ ID NO: 184)] | 50 to 75%
YLAHFIEGL [peptide YLAHFIEGL (SEQ ID NO: 169)] | 50 to 75%
ALAAARVEL [peptide ALAAARVEL (SEQ ID NO: 17)] | 50 to 75%
ILLDDNMQIRL [peptide ILLDDNMQIRL (SEQ ID NO: 174)] | ≥ 75%
RLLDFPEAMVL [peptide RLLDFPEAMVL (SEQ ID NO: 165)] | ≥ 75%
KLGDLMVLL [peptide KLGDLMVLL (SEQ ID NO: 173)] | 50 to 75%
VLVDDDGIKVV [peptide … (SEQ ID NO: 159)] | 20 to 50%
RLIPDTLYSV [peptide RLIPDTLYSV (SEQ ID NO: 3)] | ≥ 75%
GLSSAYGGL [peptide GLSSAYGGL (SEQ ID NO: 30)] | 10 to 20%
RTLDKVLEV [peptide RTLDKVLEV (SEQ ID NO: 176)] | 20 to 50%
ALWEKNTHL [peptide ALWEKNTHL (SEQ ID NO: 33)] | 50 to 75%

— patent US20230212244A1 (IMMATICS BIOTECHNOLOGIES, published 2023)
